Assay results taken from patent US6548060 (dated 2003).

T1: ASK1 (apoptosis signal-regulating kinase), full-length (UniProt Q99683 1-1374, limits assumed)
T1 construct: Full-length; LexA fusion in yeast two-hybrid; HA-tagged (pcDNA3-HA-ASK1, gift of Dr. Ichijo) in 293 cells for co-IP and the MBP kinase assay; Flag-tagged in the GST-SEK1 kinase assay; also called ASK1-F; HA-ASK1
T1 sequence (looked up): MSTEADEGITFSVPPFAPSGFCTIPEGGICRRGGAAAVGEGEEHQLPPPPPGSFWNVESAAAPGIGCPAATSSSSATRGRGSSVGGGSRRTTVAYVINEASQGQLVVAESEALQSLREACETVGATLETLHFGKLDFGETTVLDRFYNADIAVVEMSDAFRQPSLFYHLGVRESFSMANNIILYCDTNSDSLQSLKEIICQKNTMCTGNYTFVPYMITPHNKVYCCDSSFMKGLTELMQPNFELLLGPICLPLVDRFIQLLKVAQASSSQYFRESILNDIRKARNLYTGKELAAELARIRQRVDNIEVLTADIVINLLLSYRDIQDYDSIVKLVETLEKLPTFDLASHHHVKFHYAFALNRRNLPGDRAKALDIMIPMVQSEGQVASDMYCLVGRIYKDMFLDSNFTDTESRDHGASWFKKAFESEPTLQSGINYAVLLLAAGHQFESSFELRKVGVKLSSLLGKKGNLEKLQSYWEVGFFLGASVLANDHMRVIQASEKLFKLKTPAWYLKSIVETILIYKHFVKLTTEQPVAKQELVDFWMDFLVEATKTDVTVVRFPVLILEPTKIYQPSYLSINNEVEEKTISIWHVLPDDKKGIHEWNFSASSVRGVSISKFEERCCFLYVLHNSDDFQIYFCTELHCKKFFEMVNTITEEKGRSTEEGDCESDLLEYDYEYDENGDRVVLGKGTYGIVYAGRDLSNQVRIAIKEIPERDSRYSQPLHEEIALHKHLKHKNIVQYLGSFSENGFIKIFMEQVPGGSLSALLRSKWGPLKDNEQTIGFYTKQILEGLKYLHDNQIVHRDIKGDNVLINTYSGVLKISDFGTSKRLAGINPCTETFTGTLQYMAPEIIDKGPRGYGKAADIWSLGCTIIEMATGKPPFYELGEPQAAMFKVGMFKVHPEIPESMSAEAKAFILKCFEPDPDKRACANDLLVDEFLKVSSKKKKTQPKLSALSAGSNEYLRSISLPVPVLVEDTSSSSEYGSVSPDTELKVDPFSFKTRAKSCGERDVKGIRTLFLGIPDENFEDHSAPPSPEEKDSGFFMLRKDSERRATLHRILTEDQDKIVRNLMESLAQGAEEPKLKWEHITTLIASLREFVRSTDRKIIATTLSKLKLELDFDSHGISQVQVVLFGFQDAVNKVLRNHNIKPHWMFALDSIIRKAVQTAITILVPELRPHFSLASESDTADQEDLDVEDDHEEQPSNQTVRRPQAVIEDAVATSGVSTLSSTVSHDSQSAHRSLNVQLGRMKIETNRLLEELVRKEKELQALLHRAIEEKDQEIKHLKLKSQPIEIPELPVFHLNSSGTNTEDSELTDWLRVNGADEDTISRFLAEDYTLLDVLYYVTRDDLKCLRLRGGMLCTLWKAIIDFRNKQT

T2: human glutaminyl-tRNA synthetase, full-length (human, UniProt P47897 1-775)
T2 construct: range 1-775; Fused to LexA in the yeast two-hybrid assay (pEG202); also called QRS; QRS-F
T2 sequence (looked up): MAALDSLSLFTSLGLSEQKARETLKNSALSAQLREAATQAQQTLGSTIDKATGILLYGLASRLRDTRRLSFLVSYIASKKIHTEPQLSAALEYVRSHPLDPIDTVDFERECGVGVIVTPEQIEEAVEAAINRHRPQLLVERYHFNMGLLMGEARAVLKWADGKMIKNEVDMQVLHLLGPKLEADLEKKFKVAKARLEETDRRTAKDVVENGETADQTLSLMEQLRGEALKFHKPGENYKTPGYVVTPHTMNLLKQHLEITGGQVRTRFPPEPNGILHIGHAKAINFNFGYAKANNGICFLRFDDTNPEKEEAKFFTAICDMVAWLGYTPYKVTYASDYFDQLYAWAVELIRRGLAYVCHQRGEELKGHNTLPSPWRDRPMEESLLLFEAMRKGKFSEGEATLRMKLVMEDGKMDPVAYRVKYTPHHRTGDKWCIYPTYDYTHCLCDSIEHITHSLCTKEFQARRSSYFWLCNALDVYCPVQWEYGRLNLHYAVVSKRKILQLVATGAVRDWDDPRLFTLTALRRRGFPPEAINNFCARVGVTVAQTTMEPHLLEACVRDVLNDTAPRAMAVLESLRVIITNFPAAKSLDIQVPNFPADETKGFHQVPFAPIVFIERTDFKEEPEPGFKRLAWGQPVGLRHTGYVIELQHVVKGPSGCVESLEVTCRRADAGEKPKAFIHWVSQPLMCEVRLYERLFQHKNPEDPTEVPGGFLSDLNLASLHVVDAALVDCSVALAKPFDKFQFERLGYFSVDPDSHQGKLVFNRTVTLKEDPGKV

B1: N-terminal 236 aa extension of human glutaminyl-tRNA synthetase (other, UniProt P47897 1-236, looked up)
chain: MAALDSLSLFTSLGLSEQKARETLKNSALSAQLREAATQAQQTLGSTIDKATGILLYGLASRLRDTRRLSFLVSYIASKKIHTEPQLSAALEYVRSHPLDPIDTVDFERECGVGVIVTPEQIEEAVEAAINRHRPQLLVERYHFNMGLLMGEARAVLKWADGKMIKNEVDMQVLHLLGPKLEADLEKKFKVAKARLEETDRRTAKDVVENGETADQTLSLMEQLRGEALKFHKPGE
notes: range 1-236; LexA fusion in yeast two-hybrid; GST fusion (pGEX4T-2), purified, in the in vitro pull-down; Myc-tagged from pcDNA3 in 293 cells for co-IP; also called QRS-N; LexA-QRS-N

Columns and labels:
human Daxx, full-length = molecular target: T3, human Daxx, full-length (human, UniProt Q9UER7 1-740); experiment: summary of the experiments in the legend of FIG. 1
T3 construct: range 1-740; Expressed from pcDNA3 in 293 cells for co-IP; also called B42-Daxx; pcDNA3-Daxx

[1] = molecular target: T1, ASK1 (apoptosis signal-regulating …); experiment: co-immunoprecipitation with anti-HA antibody from 293 cells (FIG. 3A)
Experimental: Figure 3: FIG. 3. Interaction of QRS-C and ASK1-N. A. The cDNA (4 ug each) encoding QRS-F. -N or -C (Myc tagged) cloned in pcDNA3 was transfected into 293 cells in 100-mm dishes with 0.5 ug pcDNA3-HA-ASK1 (a kind gift of Dr. Ichijo, Tokyo university, Japan). Co-immunoprecipitation between HA-ASK1 and QRS was carried out as described previously (11) using anti-HA antibody (Santa Cruz). The precipitated proteins were resolved in 10% SDS-polyacrylamide gel, and the presence of QRS-F and -N, and -C were detected by immunoblotting with anti-QRS (17) and Myc (9E10, Boehringer Mannheim) antibodies, respectively. -B. pcDNA3-QRS-F (4 ug) was co-transfected into 293 cells with pcDNA3-HA-ASK1-F (full length) or -N (N-terminal 649 aa) (4 ug each). The cells were harvested after 24 hrs and the ASK1 peptides were precipitated with anti-HA antibody and co-precipitation of QRS was determined by immunoblotting with anti-QRS antibody. […]
Since ASK1 is the immediate downstream kinase of Daxx, we tested whether QRS also interacts with ASK1. The interaction of the two proteins was determined by co-immunoprecipitation. […] Since the N-terminal 649 aa peptide was previously determined to be a regulatory domain interacting with Daxx, (FIG. 1), we tested whether QRS interacts with ASK1-N or -C. […]

[2] = molecular target: T2, human glutaminyl-tRNA synthetase, …; experiment: yeast two-hybrid (FIG. 2A)
Experimental: (§1) Figure 2: FIG. 2. Interaction of QRS-N and Daxx-C. A. (upper panel) The interaction of QRS and Daxx was mapped by yeast two hybrid analysis. The full-length (F), N-terminal 236 aa (N) and C-terminal 539 aa (C) peptides of QRS, and the full-length ASK1 were fused to LexA (DNA-binding protein). […] The pairs of LexA and B42 hybrid proteins were expressed in a yeast tester strain and the positive interactions were determined by the formation of blue colonies as described previously (8). […] Daxx-C and QRS-N were expressed as His (pET28a, Novagen) and GST (pGEX4T-2, Amersham Pharmacia Biotech) fusion proteins, respectively and purified following the manufacturer's instructions. The purified His-Daxx-C (5 ug) was mixed with GST or GST-QRS-N (5 ug) at 4° C. for 30 min in 20 mM sodium phosphate buffer, pH 7.8, containing 500 mM NaCl. The GST proteins were precipitated with the GST resin (10 ul) and the precipitated proteins were eluted and resolved by 12% SDS-polyacrylamide gel electrophoresis and stained with Coomasie blue. Figure 2:
(§2) Human Daxx was originally identified to be associated to Fas to mediate apoptotic signal ( 10) to its downstream kinase, ASK1 (11). The activation of ASK1 then results in activation of Jun N-terminal kinase (JNK) and p38 for cellular apoptosis (12). The interaction between QRS and Daxx was further refined by yeast two hybrid analysis. […]

[3] = molecular target: T4, N-terminal 610 aa peptide of Daxx (human, UniProt Q9UER7 1-610); experiment: yeast two-hybrid (FIG. 2A lower panel)
T4 construct: range 1-610; Yeast two-hybrid construct; 610 aa overlaps Daxx-C (604-740) by a few residues as printed; also called Daxx-N
T4 sequence (Q9UER7 1-610 limits assumed): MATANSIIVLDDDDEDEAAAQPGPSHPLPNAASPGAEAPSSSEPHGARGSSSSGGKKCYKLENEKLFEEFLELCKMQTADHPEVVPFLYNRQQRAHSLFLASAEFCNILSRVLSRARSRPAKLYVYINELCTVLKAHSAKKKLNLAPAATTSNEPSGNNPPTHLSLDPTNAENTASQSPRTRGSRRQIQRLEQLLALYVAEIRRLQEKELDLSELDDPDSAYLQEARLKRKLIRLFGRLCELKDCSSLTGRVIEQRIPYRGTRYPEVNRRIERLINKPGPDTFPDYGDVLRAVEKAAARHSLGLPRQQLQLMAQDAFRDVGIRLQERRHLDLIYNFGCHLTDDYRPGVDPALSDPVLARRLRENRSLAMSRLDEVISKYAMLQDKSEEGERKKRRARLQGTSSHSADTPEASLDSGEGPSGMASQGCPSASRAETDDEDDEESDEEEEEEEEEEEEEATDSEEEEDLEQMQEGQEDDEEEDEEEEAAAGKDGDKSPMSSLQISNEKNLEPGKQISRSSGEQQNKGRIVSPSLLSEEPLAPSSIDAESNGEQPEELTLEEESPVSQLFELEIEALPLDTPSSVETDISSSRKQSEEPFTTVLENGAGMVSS
Experimental: as §1, with “Interaction” for “Figure 2: FIG. 2. Interaction”
as §2

[4] = molecular target: B1; experiment: in vitro pull-down, purified His-Daxx-C with GST-QRS-N on GST resin, Coomassie-stained gel (FIG. 2B)
Experimental: as §1
The interaction between the Daxx-C and QRS-N was confirmed by in vitro pull down experiment. Daxx-C and QRS-N were expressed as His and GST fusion proteins, respectively. The purified two fusion proteins were then mixed and precipitated with the GST resin. Daxx-C was co-precipitated with QRS-N, confirming the direct interaction between the two molecules (FIG. 2B).

| binding result (human Daxx, full-length) | binding result [1] | binding result [2] | binding result [3] | binding result [4] | Binder |
| --- | --- | --- | --- | --- | --- |
| binds | no binding |  |  |  | B1 |
|  |  | binds | binds | binds | C-terminal 137 aa peptide of human Daxx (G604-D740) (other, UniProt Q9UER7 604-740, looked up, range 604-740; B42 fusion in yeast two-hybrid; His fusion (pET28a), purified, in the in vitro pull-down; also called Daxx-C; B42-Daxx-C) GAGMVSSTSFNGGVSPHNWGDSGPPCKKSRKEKKQTGSGPLGNSYVERQRSVHEKNGKKICTLPSPPSPLASLAPVADSSTRVDSPSHGLVTSSLCIPSPARLSQTPHSQPPRPGTCKTSVATQCDPEEIIVLSDSD |
